Data from patent US20210041439A1.

Columns and labels:
[1] = tested on: cyclin E (substrate of the in vitro ubiquitylation assay)
[2] = target: biotinylated phosphorylated cyclin E degron peptide; assay: ALPHAscreen, 384-well LOPAC screen; 25 nM FBW7 and 25 nM cyclin E phosphopeptide
[3] = target: biotinylated phosphorylated cyclin E degron peptide; assay: ALPHAscreen, 384-well; His-FBW7 on Ni-chelate acceptor beads, biotin-peptide on streptavidin donor beads
[4] = target: biotinylated phosphorylated cyclin E degron peptide; assay: ALPHAscreen, 1536-well primary screen, n=518 plates

| S:B ratio (wt-FBW7 high control versus mutant FBW7 low control, both with cyclin E phosphopeptide) [2] | fold ALPHA signal, phosphorylated versus unphosphorylated cyclin E degron peptide [3] [fold] | signal-to-background (S:B) (Wt-FBW7+pCycE-peptide high control versus Wt-FBW7+unphosphorylated CycE peptide low control) [4] | Substance | reconstituted in vitro Cyclin E polyubiquitylation assay [1] |
| --- | --- | --- | --- | --- |
|  |  |  | wild-type F-box/WD repeat-containing protein 7 (FBW7), recombinant dimeric Skp1-FBW7 complex | wt-FBW7 was highly active |
| 14.6 | 100 | 69.3 | wild-type F-box/WD repeat-containing protein 7 (FBW7), recombinant dimeric Skp1-FBW7 complex (from UniProt P63208 1-163) (enzyme) |  |
|  |  |  | mutant FBW7 R505L (FBW7^ARG), recombinant dimeric Skp1-FBW7 complex | FBW7^ARG was inactive |
